A protein production outcome set (Wang et al. 2014)

Assay: label from the status in PepcDB records

MFDWLTNSTAIIIILPVVVFVLTLFLARFKFRKPQRRIMLAADLSTIFLIIAVHFFMIVIFNRSFLLYILLFLFILGIVIVVLAAKKEGEIQFRKILRGYWRLCFFIFALLYVVLYLYGIIYSLILLF
protein production: failed

MFELFQYDFMRNALLAATAISIFSPLLGVFLVLRRQSLMSDTLSHVSLAGVAFGVLLSWNPTITTLITVVIAAVFLEYLRTIYHNYMEIATAILMSAGLAIALLILNSSKGATSVSLEQYLFGSIITISLSQVIMLFVLAAVVLLGFILFLRPLYVMTFDEDTAFVDGLPVRWISIAFNIVTGVAIALMIPAAGALLVSAIMVLPASIAMRLGKSFKAVLFISAIVSFIGLNAGLIASYYMDAPASAAITLIFIVLFLVTSSLKRLIRA
protein production: failed

MFETFFSTYLSSTIRFLFLLAPFFVVTMFLALTRGLSMAEKTSIIRRACVSAFILGVILFFAGPLLFNAIGITLNSFRIGAGSLLFLTAISLVNSGTRNHATGLPEEDRDDIAVVPLAIPVMIGPATIGAIMVYGAELKAVPEVAGGLLGLVSGLMILAGLLRLSGYLEKALGKTGLNIMSKISGLILSAMAAEIVLTGIAGFIASTSGA
protein production: failed

MFFGLTLGTAVATGGRDSTLKRAAPQASCMDVHNVTAEAETFTCNAYLATGEQTTLVDAGAMRGVVDVIREHADALDAVVLTHQHGDHVQRLDTVLDAFDAPLYAYGSHPRRDHALADGDTLTVGDEECEVVYTPGHADDHVSLVSESALFSGDVVVHDDGAFDDGSFGRTDRPGQSRERLIESIERILDRMPAGVEHMYSGHGGVFHGDVREVVERALERAERREPKYPDD
protein production: failed

MFFKQFYDNHLSQASYLVGCQRTGEAIIIDPVRDLSKYIEVADSEGLTITQATETHIHADFASGIRDVAKRLNANIYVSGEGEDALGYKNMPSKTQFVKHGDIIQVGNVKLEVLHTPGHTPESISFLLTDLGGGSSVPMGLFSGDFIFVGDIGRPDLLEKSVQIKGSTEISAKQMYESVQNIKNLPDYVQIWPGHGAGSPCGKALGAIPISTIGYEKINNWAFNEIDETKFIESLTSNQPAPPHHFAQMKQVNQFGMNLYQSYDVYPSLDNKRVAFDLRSKEAFHGGHTKGTINIPYNKNFINQIGWYLDFEKDIDLIGDKSTVEKAKHTLQLIGFDKVAGYRLPKSGISTQSVHSADMTGKEEHVLDVRNDEEWNNGHLDQAVNIPHGKLLNENIPFNKEDKIYVHCQSGVRSSIAVGILESKGFENVVNIREGYQDFPESLKLEHHHHHH
protein production: not failed

MFFNFLIPPNSFSSFPEYVAFVVSLSYALNATLLLLYSRIFGVEVKEKAFIPVTLSFVAIDFTSIQGLRLFVGIPAYLGVVILTSLCILEGLALALTSSLALVNASRRHLAATWIAANVASSGLFMAFVGVS
protein production: failed

MFGISISSAILHFVIGGFAVALASIMADKVGGKLGGIIATMPAVYLAAIIALAIDHKGQQLIQMSIHLSTGAIVGIVSCIVTVFFTSIFIGKKNYRSGTVFAILCWFVISVAIFLVRHI
protein production: failed

MFGKLLKKEIKELLNLGAIVSVIVVAVLYGSLGNVFKSTVEKSTVGQKVAIVREDTGTIAELAEKALGNMVDIVYAGSDLKEAEEAVKKEKAPAIIVIPKGFSQSLESGEKARLEIVWYLRGTGLSEAVSTGTISSLIESLKVQLASFLLNDPKKAQLLFDPLEIVQHTYLRGSLFKNHSPEAIMNVFYSQNIMIPILIMMLIIMSGSSLISSLAMEKENKTLETLLTMPVKREHIALAKIVGSAIVGLILAGIYMAGFYSYLNSLTQNVQGMGLNFKAVDFLLMGSSLFLSILAGLSLCMLLGMMAKDYRSAQLLTFPISILALVPMIANMIMDFSNLPGVLKVIVFLIPFSHPIMSPKLAFYGDYGLIVSGILYLLIFSIVTTVFVFRIFNSDYVVLGWQREKRLKFFSR
protein production: failed

MFGMTLVNIFVPKLNLYHFVVGVIYLFPMIVIGFKIVKNRNITGLPLFICSGIVGVWAILLHMKMNLGHDYEFFSGPIQETVMLILLLVAVPLSYYVFACSVGCKDTRNMKALKIFPVVAFFIIVITEILGISYYGMANYVLLFSFLLLIGPLLGGLYIWEIMSNIQFKNYTT
protein production: failed

MFGQWEFDVSPTGGIAVASTEVEHFAGSQHEVDTAEVPSAAWGWSRIDHRTWHIVGLCIFGFLLAMLRGNHVGHVEDWFLITFAAVVLFVLARDLWGRRRGWIR
protein production: failed

MFIEALILLCLVGAAAVFIAPDRYAHKLALGLSVPPLVVSLYMYAAFDGSGNALLGGDIAYETATEWLQLGQYTVSYHVGLDGISLPLVVLSTVLTTLAILSAWTPIDERQSEFYGLVLLLEGSLIGVFAALDFILWFVFWEAVLIPMYLLIGVWGGPRRKYAAIKFFVYTNIASLVMFIGYFALVFGLGDAVSSTGMPAVAQALRADQLGYLGTAAVGIGPDMLAMAAFLAMFVGFAVKVPVVPFHTWLPDAHVEAPTPVSVLLAGVLLKMGTYALLRFNFTMLPDQVETFAVPIALIAIISILYGALLALAQKDLKRIVAYSSVSSMGYVILGLVAYTVYGVGGATFQMIAHGLISGLLFMTVGVFYNATHTRMVGDMGGLADRMPVTAGIFIAGAFGYMGLPLMAGFMAELFVFIGAFQSAILPYAPVITAAGMFGIVVVAGYLLWAMQRSLFGPFRLETDYELERAPVHDIVPLLTLVALIIALGVAPDLIFEMIRDATHSVIDYDFGGDL
protein production: failed

MFIKAERLLIRKFEFKDWEAVHEYTSDSDVMKYIPEGVFTEEDTRNFVNKNMGENAKNFPVILIGENILVGHIVFHKYFGEHTYEIGWVFNPKYFNKGYASEAAQATLKYGFKEMKLHRIIATCQPENTPSYRVMEKIGMRREGYFKKCIPHGNEWWDEYYYAILEEE
protein production: not failed

MFIKVKLPWDVTIPAEDMDTGLMLQRAIVIRLLEAFSKEKATKDLGYLITPTILENIGEGKIKEQTGEIQFPVVFNGICFKMFKGEIVHGVVHKVHKTGVFLKSGPYEIIYLSHMKMPGYEFIPGENPFFMNQYMSRIQIGARVRFVVLDTEWREAEKDFMALASIDGDNLGPF
protein production: failed

MFIYGHMEKSERKNYLRESREVSYISLALLIISYIVISSIRFSFYLLSIMLIVSLLNFSIYFYMRYKIHARYHKNIDIQGYILEDNSWRYVLSLSVLLTIFIFLEYPFPFIRFYSFILIVNAFVITTWIVSLNGPIIGMLISRSDPLYEPFLYRAMELANAMNINVPDLYILDTRNRIANAFTVSRKESYVFITRLLMNILDVDEVTAVMAHEFAHIKLRHNLKTSIINFAVILFLINIALYGLTLDSFAGIMLPVISIIIYMFFTTFLLNYIKRRNEINADLTAIKYVNPDYLISALHKIENLEIFSRRISDIYLDHPSIDRRISIINRSRSS
protein production: failed

MFKIDLFSNKKAVEGFILFQLTIVMISILISYKMAYSMTHIIEQNIIFNIIFGIVGFAVVYFLHEFIHNIMFRVMSKGNKPTYRIKSGLITTHMPNVYFKKWQYMTIMLAPLVIITSVLLVIFSYFAYSSIIFIACFHIGYCVMDMYFLTGLLNKHVQLIEDTEEGIKFYTQAPAPAQEFRTELKS
protein production: failed

MFKITPFSTQQHVIIQITDTHLLEDPQQEFVGINPERSFHCVMQHIRQHHAQIDAIIHTGDLAQTPTPATYARYLDFMQSFGVPFFHVPGNHDHPEFFPFHQASPSELSIVVLGNWHVILMNSAVVGQVDGWINDQQIQQLRDHLAAHPDTPTIVACHHHPFDMHSKWIDQHKLKNTPDLLATFKHYPQIRAVLCGHVHQESLHRWEHIDFLSSPSTSVQFKPRSDEFAFDTLPSGYRILRLNSDGQFDSNIHRIENMLQNINTEISGY
protein production: failed

MFKKEIILGILCLFAACHSNDEIIEEQESPKNEQQEPKARVDIILSHEEQAMSESTNDFAFQLFKQVCVSENRKTNIFISPFSVSLCLSMSANGANGNTLTEIKKVLGFSSSSMDEVNTYNQKLMSSLLNIDNTTQIGIANSVWINQGFVVKNTFIDINKLKYNAWVESLDFSSASAIATINAWCARNTENRLVDIMDEISPEARLILINALYFKGKWTNPFSKEVTKNDFFTNIDGEQVKVDMMCQEESFRCMNNEKFAIAEFPYGNEAFSMVVVLPVENSSLEESLLWLSNDAWKQCETQMSYQKLQVKMPKFSFKYQKPLNSDMSVLGMKDAFILGLADFRNISASENLYLSSLEQFTYLEVNEEGTESAAITTEVPATSTGDDKDIIHFFMDRPFIFMIKEKSTGLILFMGQVTKL
protein production: failed

MFKKRLNKDKINDCYTWEEELPDGSYDMGFHGNLNHMEKGKSGYVTHKQLDKKLEVFKQDLLVELSEKFVTKEEFRAQGKQIKELQIEQKAQGKTLQLILEALQGINKRLDKLESKLEHHHHHH
protein production: not failed

MFKKTFSMICCVIFLQGCSQEQEVKKEMTNMETALLAATEKNETNTVISLLKQGANINATDNQGRTPLMIATYKNDVKTAKALIKAGADVNIQDDMKNNPFLYAGAEGYLDILKLTINAGADPTITNRYGGTALIPASEHGYIDVIKELLTRTNIDVNHVNNLGWTALMETIVLSNGNETQQQVIRLLIEHGADVNIPDNDGVTPLEHARAHNFAEIEKILLEGNK
protein production: failed

MFLIILIKSLIIGGLVGVGVGAGAARMFHAPTTQGMGAFRTLGELNSCEGDPASHFSFGLGFFFNAWASSVAAGSFTQDVDHRIIPNWGAAALMLKNRNVGETLHDPKKMAISCGIIGMIVVAFLNLTASSVPEALQVTAVKVLVPAANLLVNTVMPVIFWLAAIDAGKKSGFWATIFGGAAQLIMGNAVPGLVLGILIGKGVEESGWNRVTKVMMVAIVALFVLSGFFRGFDMKMIESFHLTVPNWLDMIHNSLSGK
protein production: failed

MFLSDPLPAGGDPVTRLTRYVTRELLPPLLAGTLLFTAILSFGYFFISSQWLSGVPVSLIARWIGYQLPDTLVKVLPMAVVLMTVVAFGRMNTERELVAVQAGGIGLGRVTRPAAVVGLLVTALSVWLSLWVAPRANVETRGLYWDALTGAGLSQLVGKTVDLGQGLTLAMQGYDAGARQMQGVRVEKWDKDNFRQGMVVFADAGKFEGNQLSLTGYQVYRVDYAAAAALSGVADNDPAAFREAVQKVFPLVQVPEDRNAALNLDTGLSRKQTLAQYADAIGADAEGWPELITKLTAPGVPQSERDAARVNLNRKLALPFANLVLVLAALPFALRFGRTLGVSLGVALVIAVAYYLLFSVGLTLAGLLPGLPELGVWLANIVFALGGLWLLRRA
protein production: failed

MFLSGAHSFNANCRRQRQRVFGAPRVPLGESKICCVWAQHFLPCSRVYDPMTSKVSSPTLLEALSSDFLACKICLEQLHTPKTLPCLHTYCQDCLAQLDIGGQVRCPECRETVPVPPEGVAAFKTNFFVNGLLDLVKARAAGDSHSGKPTCALCPLVGGKSSGGPATARCLDCADDLCQACADGHRCSRQTHKHRVVDLVGYRAGWYDEEARERQASQCPQHPGETLCFLCQPCSQLLCKDCRLGPHIDHPCLPLAEAVRSRKPGLEELLAGVDSNLLELEATRVAEKEALALLREQAASVGTQVEEAAERILKSLLAQKQEVLGQLRALVEAAEEATRERLTKIESQEQVAKAAAAFARRVLSLGLEAEILSLEGAITQRLRQLQDTPWTSGPTRCVLPQLELHPGLEDKNCHLLRLSFEEPRQSQKDGGKVGAGTQGGDEAQSQGDDRTKTGKQGGAQPLIPKEGKAQNPPEDDEVLIERGNRPNKKKKCKGRGKSVSREPSPILRPNLEGSGPLPRPVFSWSFPTRMPGDKRSPRITGLCPYGPQEILVADEQNRVLKRFSLNGDYKGTVPVPEGCSPCSVAALQNAVAFSANAKLYLVSPEGEVQWRRSLSLAQSSHAVAAMPCGDRVAVSVAGHVEVYKKEGSLATRFIPGGKASRGQRALVFLTTSPQGNFVGSDWQQNSVVFCDGLGQVIWEYKGPGLHGCQPGSVSVDKKGYIFLTLREVNKVVILDPKGSLLGDFLTAYHGLEKPRVTTMVDGKYLVVSLSNGTIHVFRVRFPDS
protein production: failed

MFLTLSGADMSALIKGSGPHHVVVLNGWFGHAAGWGAFADYLDLGNYTWHFWDYRGYGNRKDDAGEFTLEEISADIVAYIDSIEAEKVSILGHSMGGVFMQKVLADSATPIASLVGISAVAAAGTPFDEDSRKLFTSAGHNPDSRRAIIDFTSGSRQPAAWLDDLTDSTVQNSTPEAVEKYFFAWADCNFAADLGTQDLPVYILTGDLDPAVTKTAVESAFGPIYQNLTVEELHDVGHYAIFEHPLGLAARVLRFLDAV
protein production: failed
